Measurements published in article PMC7295778.
Blank lines part the entries; values can stand above or below the substance they belong to.

Experiments:
[1] = target: KirBac3.1 A133C-T136C (Cys-less background C262S, C71V, C119V) crosslinked with MTS-1-MTS (UniProt D9N164); test: native MS; 200 mM ammonium acetate pH 8.0, 0.5% C8E4; Q-ToF and QExactive; collision-induced dissociation in the gas phase on the Q-ToF
[2] = target: KirBac3.1 A133C-T136C (Cys-less background C262S, C71V, C119V) crosslinked with MTS-1-MTS (UniProt D9N164); test: cross-linking; purified cysteine-pair mutants at 0.03-4 mg/ml in 20 mM TRIS pH 8.0, 150 mM KCl, 0.02% DDM; MTS-1-MTS 0.5 mM, dibromobimane 2.5 mM or CuSO4 1 mM, room temperature, 30 min; read by SDS-PAGE
[3] = target: KirBac3.1 A133C-T136C (Cys-less background C262S, C71V, C119V) crosslinked with dibromobimane (UniProt D9N164); test: native MS; 200 mM ammonium acetate pH 8.0, 0.5% C8E4; Q-ToF and QExactive; collision-induced dissociation in the gas phase on the Q-ToF
[4] = target: KirBac3.1 A133C-T136C (Cys-less background C262S, C71V, C119V) crosslinked with dibromobimane (UniProt D9N164); test: cross-linking; purified cysteine-pair mutants at 0.03-4 mg/ml in 20 mM TRIS pH 8.0, 150 mM KCl, 0.02% DDM; MTS-1-MTS 0.5 mM, dibromobimane 2.5 mM or CuSO4 1 mM, room temperature, 30 min; read by SDS-PAGE
[5] = target: KirBac3.1 A133C-T136C (Cys-less background C262S, C71V, C119V), disulfide-linked (UniProt D9N164); test: native MS; 200 mM ammonium acetate pH 8.0, 0.5% C8E4; Q-ToF and QExactive; collision-induced dissociation in the gas phase on the Q-ToF
[6] = target: KirBac3.1 A133C-T136C (Cys-less background C262S, C71V, C119V), disulfide-linked (UniProt D9N164); test: cross-linking; purified cysteine-pair mutants at 0.03-4 mg/ml in 20 mM TRIS pH 8.0, 150 mM KCl, 0.02% DDM; MTS-1-MTS 0.5 mM, dibromobimane 2.5 mM or CuSO4 1 mM, room temperature, 30 min; read by SDS-PAGE
[7] = target: KirBac3.1 S129C-F135C (Cys-less background C262S, C71V, C119V) crosslinked with MTS-1-MTS (UniProt D9N164); test: native MS; 200 mM ammonium acetate pH 8.0, 0.5% C8E4; Q-ToF and QExactive; collision-induced dissociation in the gas phase on the Q-ToF
[8] = target: KirBac3.1 S129C-F135C (Cys-less background C262S, C71V, C119V) crosslinked with MTS-1-MTS (UniProt D9N164); test: cross-linking; purified cysteine-pair mutants at 0.03-4 mg/ml in 20 mM TRIS pH 8.0, 150 mM KCl, 0.02% DDM; MTS-1-MTS 0.5 mM, dibromobimane 2.5 mM or CuSO4 1 mM, room temperature, 30 min; read by SDS-PAGE
[9] = target: KirBac3.1 S129C-F135C (Cys-less background C262S, C71V, C119V) crosslinked with dibromobimane (UniProt D9N164); test: native MS; 200 mM ammonium acetate pH 8.0, 0.5% C8E4; Q-ToF and QExactive; collision-induced dissociation in the gas phase on the Q-ToF
[10] = target: KirBac3.1 S129C-F135C (Cys-less background C262S, C71V, C119V) crosslinked with dibromobimane (UniProt D9N164); test: cross-linking; purified cysteine-pair mutants at 0.03-4 mg/ml in 20 mM TRIS pH 8.0, 150 mM KCl, 0.02% DDM; MTS-1-MTS 0.5 mM, dibromobimane 2.5 mM or CuSO4 1 mM, room temperature, 30 min; read by SDS-PAGE
[11] = target: KirBac3.1 S129C-F135C (Cys-less background C262S, C71V, C119V), disulfide-linked (UniProt D9N164); test: native MS; 200 mM ammonium acetate pH 8.0, 0.5% C8E4; Q-ToF and QExactive; collision-induced dissociation in the gas phase on the Q-ToF
[12] = target: KirBac3.1 S129C-F135C (Cys-less background C262S, C71V, C119V), disulfide-linked (UniProt D9N164); test: cross-linking; purified cysteine-pair mutants at 0.03-4 mg/ml in 20 mM TRIS pH 8.0, 150 mM KCl, 0.02% DDM; MTS-1-MTS 0.5 mM, dibromobimane 2.5 mM or CuSO4 1 mM, room temperature, 30 min; read by SDS-PAGE

stoichiometry N [1]: 4
stoichiometry N [2]: 4
Substance: KirBac3.1 A133C-T136C (Cys-less background C262S, C71V, C119V) crosslinked with MTS-1-MTS (from UniProt D9N164 1-295) (natural protein)

stoichiometry N [3]: 4
stoichiometry N [4]: 4
Substance: KirBac3.1 A133C-T136C (Cys-less background C262S, C71V, C119V) crosslinked with dibromobimane (from UniProt D9N164 1-295) (natural protein)

stoichiometry N [5]: 4
stoichiometry N [6]: 4
Substance: KirBac3.1 A133C-T136C (Cys-less background C262S, C71V, C119V), disulfide-linked (from UniProt D9N164 1-295) (natural protein)

stoichiometry N [7]: 4
stoichiometry N [8]: 4
Substance: KirBac3.1 S129C-F135C (Cys-less background C262S, C71V, C119V) crosslinked with MTS-1-MTS (from UniProt D9N164 1-295) (natural protein)

stoichiometry N [9]: 4
stoichiometry N [10]: 4
Substance: KirBac3.1 S129C-F135C (Cys-less background C262S, C71V, C119V) crosslinked with dibromobimane (from UniProt D9N164 1-295) (natural protein)

stoichiometry N [11]: 4
stoichiometry N [12]: 4
Substance: KirBac3.1 S129C-F135C (Cys-less background C262S, C71V, C119V), disulfide-linked (from UniProt D9N164 1-295) (natural protein)
